Measurements taken from the supplement of paper PMC9170038.

Tested on: MS2 coat protein
Experiment: apparent KD of MS2 coat protein; designed switch direction (-1 OFF switch, 1 ON switch): -1; higher = weaker reporter binding
How it was run: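 Normalised cluster fluorescence was curve-fitted, and each design's median over clusters is its apparent KD. Before this, SNAP-549-labelled MS2 coat protein was titrated from 0.7 or 1.5 nM, doubling to 3 µM, over RNA switches transcribed on Illumina chips by stalled E. coli RNA polymerase. Titrations had no input, 200 uM small-molecule ligand, or an oligonucleotide input, and steps lasted 0.8–1.5 h (lowest) to 10–20 min (highest).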

[1] = Eterna round: R95, input ligand: microRNA oligo, concentration not stated
[2] = Eterna round: R95, input ligand: FMN 200 uM
[3] = Eterna round: R95, input ligand: none
[4] = input ligand: microRNA oligo, concentration not stated

Row | Sequence | apparent KD of MS2 coat protein (input ligand: FMN 200 uM) | apparent KD of MS2 coat protein (input ligand: none) | apparent KD of MS2 coat protein [1] | apparent KD of MS2 coat protein [2] | apparent KD of MS2 coat protein [3] | apparent KD of MS2 coat protein [4]
1 | UGAAGGCGAGGAUAUACUGUAUGGGACAUGAGGAUCACCCAUGUUCUGUGUGUACCCGUCGUAGAAGGCGCGAAGA [EX5 C.9] (Eterna round: R97, puzzle: Exclusion 5) | 16 nM | 14.5 nM |  |  |  | 
2 | UAGGUGUGAGGAUAUGGUAAAGAUAAAAUGAUGAAAGAACUCCAGAAGGCACAUGAGGAUCACCCAUGUAGAUG [Mat - Exclusion 4 - Mod of JL - D33] (puzzle: Exclusion 4) |  |  | 28.3 nM |  |  | 
3 | AAUCAGUGUGUGAGGAUAUUGGUGGAGUGACUUAUUAAGAAGGCACAUGAGGAUCACCCAUGUGGGAAGUCAGG [JR_BMEx4_Sub017] (Eterna round: R97, puzzle: Brourd's mod of Exclusion 4) | 13.9 nM | 14.8 nM |  |  |  | 
4 | GCAGGUUAAGUAAGGAUAUACCUCUGGAAACAGAGGUAGAAGGUACAUGAGGAUCACCCAUGUUUCUCUUUUGC [Mod of Eli 5 - Jieux - Brourd's mod of Exclusion 4] (Eterna round: R97, puzzle: Brourd's mod of Exclusion 4) | 24.8 nM | 16 nM |  |  |  | 
5 | GGUGGGCUAGGAUAUGCUUUGGGAAGGCAUUCCUUCGAUAAACUUGAGGAUCACCCAAGUAGAAGGAGCUUGCC [salish99_ex2_r4_021] (Eterna round: R97, puzzle: Exclusion 2) | 21.3 nM | 13.6 nM |  |  |  | 
6 | GUAUGUUAUGAGGAUAUCGGUGAACAUACACAUCGAGAAGGCAUGACAUGAGGAUCACCCAUGUCAAGGAUGAG [Exclusion 6 - B - 18:c] (puzzle: Exclusion 6) |  |  | 17.7 nM | 71.9 nM | 22.7 nM | 
7 | GGUGUGCCAGUCAGGAUAUGAUCCACGCCCGUAGGUCAGAAGGGACUUGAGGAUCACCCAAGUUGCAAGAAAGA [Gesoxedi] (Eterna round: R97, puzzle: Brourd's mod of Exclusion 4) | 100 nM | 97.3 nM |  |  |  | 
8 | UAUAACCGAGGAUAUACAUGAGGAUCACCCAUGUAAUGUAGUAUAAUGUAUGUAAGAUGUAGAAGGUGGGAUGU (Eterna round: R97, puzzle: Exclusion 3) | 56.2 nM | 45.2 nM |  |  |  | 
9 | AUAAUAUAUGUAGGAUAUCUGCACGUGUAGUGCAGAGAAGGACAUGAGGAUCACCCAUGUAAUUAAGAUCAAUUAUUAAAUUAU [ENG1/4-B3] (Eterna round: R96, puzzle: Exclusion NG 1) | 83.8 nM | 38.1 nM |  |  |  | 35.5 nM
10 | AAGGUCAAGAAUGGAAAUUAAAUACAUGAGGAUCACCCAUGUCAGGAUAUCCAGUAGAGACCUAGGGAGAAGGGACAUGAAAAG [Esonanza] (Eterna round: R96, puzzle: Exclusion NG 3) | 16.1 nM | 14.7 nM |  |  |  | 10.3 nM
11 | GAGGAGACAGGAUAUACAUGAGGAUCACCCAUGUGAGGAGGAGGAGAGAGGAGAAGGAGUAGAAGGGUCAGAGA [JR_Exclu3_Sub024] (puzzle: Exclusion 3) |  |  | 33.7 nM | 45.1 nM | 73.8 nM | 
12 | ACUUACUGAGGAUAUACAUAGAUUUACAUGAGGAUCACCCAUGUUCCUCUAUGUAUAUAUGUAGAAGGCAGAAGUG [Mat - Exclusion 5 - JL Mod - D36] (Eterna round: R97, puzzle: Exclusion 5) | 137 nM | 33.3 nM |  |  |  | 
13 | ACAUGUCAUUGAGGAUAUUGCACACAUGAGGAUCACCCAUGUAUACGGUUGCUCUUGCGUGAGUUCGAGAAGGCGAUGUACAUU [Ex NG2 #87] (Eterna round: R96, puzzle: Exclusion NG 2) | 356 nM | 159 nM |  |  |  | 168 nM
14 | GAGAGAAUCUAGGAUAUGUCAAGAGAAGGAGAGAUAGAAGGAGAGACAUGAGGAUCACCCAUGUCUUCGUGUAG [Default title] (Eterna round: R97, puzzle: Exclusion 6) | 19.4 nM | 17.8 nM |  |  |  | 
15 | CGAUGUAGAGGAUAUACGUGAAUUUUGUUAUUUUUUAAUUUACAUGAGGAUCACCCAUGUAGAAGGCUAUAUCG [JR_Ex2_Sub087] (Eterna round: R97, puzzle: Exclusion 2) | 91.9 nM | 22.2 nM |  |  |  | 
16 | CAGUACUGAGGAUAUACAUGAGGAUCACCCAUGUGUUCCAGCUAGGAAACUAGCAAAAUUAGAAGGCAGUACUG [salish99_ex3_r3_087] (puzzle: Exclusion 3) |  |  | 11.3 nM |  |  | 
17 | AAAUAACAAGCGAGAUCCUACAUGAGGAUCACCCAUGUGCUCGUCUUAUAAAGUACUAUCACGAAAGUGAUAGUACA [Sensor 3, v1 - 13] (puzzle: Sensor v3, turn-off variant 1) |  |  | 50.8 nM | 16.4 nM | 16.3 nM | 

Row | Sequence | apparent KD of MS2 coat protein (input ligand: FMN 200 uM) | apparent KD of MS2 coat protein (input ligand: none) | apparent KD of MS2 coat protein [1] | apparent KD of MS2 coat protein [2] | apparent KD of MS2 coat protein [3] | apparent KD of MS2 coat protein [4]
18 | AACGAGGCAGGAUAUACAUGAGGAUCACCCAUGUGCUUGCAUGGCGUGGGACGUCAACGUAGAAGGGCCAUGCC [EX3 #67] (Eterna round: R97, puzzle: Exclusion 3) | 43.1 nM | 45.6 nM |  |  |  | 
19 | UAAUUGAUUAAUAGAUUAUACAUGAGGAUCACCCAUGUAGGUCCUACGUGCCAUUUAAGUAGCUCGUCUUAUUCCCA [Sensor-V1 #67] (Eterna round: R97, puzzle: Sensor, turn-off variant 1) | 40.2 nM | 45.6 nM |  |  |  | 
20 | CAAUUGGGAGGAUAUACAUGAGGAUCACCCAUGUCGAUCCCAGGUAAGUUAAUACUUCGUAGAAGGCCUAUCUC [Eternabot (L2) Solution 16] (Eterna round: R97, puzzle: Exclusion 3) | 20.6 nM | 17.6 nM |  |  |  | 
21 | AAUAAAGUAGGAUAUCGGCCAGCGAACAUGAGGAUCACCCAUGUGAUGCCGUGCCGACGCCGAGAAGGGCUUAAAA [Usceisma] (puzzle: Exclusion 5) |  |  | 12 nM | 13.5 nM | 12.1 nM | 
22 | CUCGUGCAGCAAAGCUGUACGAGUACAUGAGGAUCACCCAUGUAGGAUAUGGUACGCAAAGCGUGCUAGAAGGACGUGUGUAUG [Mat - Exclusion NG 3 - Mod of JL - D91] (Eterna round: R96, puzzle: Exclusion NG 3) | 134 nM | 58 nM |  |  |  | 28.7 nM
23 | AGCAGACGAGGAUAUAGAUUUGUUGACAUGAGGAUCACCCAUGUGAUCGAUCUAUCAUAUUUAGAAGGUGUCUGCU [JR_Ex5_Sub041] (Eterna round: R97, puzzle: Exclusion 5) | 18.6 nM | 14.3 nM |  |  |  | 
24 | CAGUACUACAAGCUUUGGGACAUGAGGAUCACCCAUGUUCGUCUUAUUGAUCUAGGUACGCUGACGUACCUAGAUCU [JL-sv1-2.11 Brourd mod] (puzzle: Sensor v3, turn-off variant 1) |  |  | 33.1 nM | 16.7 nM | 15.3 nM | 
25 | AUGAGAGCAGGAUAUGCAGGUGUGCCGGAAGAAAGAAGAAGACAUGAGGAUCACCCAUGUAGAAGGGCUAGCCC [Bibidi] (Eterna round: R96, puzzle: Exclusion 2) |  |  |  |  |  | 15.2 nM
26 | UUUAACAAGCCAGAUCCUCACAUGAGGAUCACCCAUGUGCUCGUCUGAUUUUGUACUAUCAUGUGAGUGAUAGUAUU [Level Boss var2-05] (Eterna round: R96, puzzle: Sensor v3, turn-off variant 1) | 360 nM | 300 nM |  |  |  | 39.1 nM
27 | UUGCCGCGAGGAUAUGCAGACGGGUUCAAUACGUGUCUCGGACUUGAGGAUCACCCAAGUAGAAGGCUUUUUAU [LRO-Excl2-13-mod _r4_621 by salish99] (Eterna round: R97, puzzle: Exclusion 2) | 16.2 nM | 14.8 nM |  |  |  | 
28 | ACACACAGAGGAUAUCUUCCGCAUGACAUGAGGAUCACCCAUGUGUGCAUGCCCAAAGGUAGAGAAGGCUGUGUGU [eternacac ex5r4 #4] (Eterna round: R97, puzzle: Exclusion 5) | 24.9 nM | 22.2 nM |  |  |  | 
29 | AGCUGUGGCCGAGGAUAUGACAUGAGGAUCACCCAUGUACAAGAUUAGGCCUGGUAACAGGCUCAUCAGAAGGCGGUCUCAGCA [Eli eng2 - 015] (Eterna round: R96, puzzle: Exclusion NG 2) | 10 nM | 13.9 nM |  |  |  | 9.52 nM
30 | UGCAUGUGAGGAUAUGUGUACUGUCUUUUGUUUAGAUGUACACAGAAGGCACAUGAGGAUCACCCAUGUAGUAC [Ex4 - 3 - 34] (puzzle: Exclusion 4) |  |  | 59.1 nM |  |  | 
31 | UAAAUGUGAGGAUAUUCGAAGAACACGGAGACGUGUUUUUCGGAGAAGGCACAUGAGGAUCACCCAUGUUCCUU [Mat - Exclusion 4 - JL Mod - D6] (Eterna round: R97, puzzle: Exclusion 4) | 241 nM | 29.8 nM |  |  |  | 
32 | UUUUAACAUGAGGAUCACCCAUGUGAGGAUAUCGAAAUUUAUAUUUAUAUUAAUUUUACGAGAAGGCACAUUUU [JMF 90] (puzzle: Exclusion 1) |  |  | 120 nM |  |  | 
33 | AUGGGUACUUUCGGAACGACAUGAGGAUCACCCAUGUAUACUGAGGAUAUCCACUACUAAGGACGGGAGAAGGCAGUGUACUGU [Ex NG3 #80] (Eterna round: R96, puzzle: Exclusion NG 3) | 27 nM | 18.5 nM |  |  |  | 12.1 nM
34 | CUGCUGGAGCGGUGCUUUGGUCGUACAUGAGGAUCACCCAUGUAGGAUAUGGUAAAAUUUGCUUGCUAGAAGGAUAGAGUGGUC [salish99_ExNG3_r04_614] (Eterna round: R96, puzzle: Exclusion NG 3) | 96.9 nM | 61.3 nM |  |  |  | 42.4 nM
